Where two headings read alike, the source gives them in different places.

We go through three molecules from patent publication US20200317791A1 (Janssen / Centocor, published 2020).

Assay [1] concerns the target T1, CW6W32 (rhHLA-Cw6/TRAT) (human).
T1 construct: also called CW6W32.009; rHLA-Cw6/TRAT
Briefly: SPR Biacore 8K, captured mAb; Kinetic fit not valid. (In general: SPR reads the build-up and loss of mass on a sensor chip optically.)

In assay [2] the target is T2, A24_A*24:02 (human, UniProt A*24:02).
T2 construct: on LABScreen bead; also called HLA-A*24:02 (LABScreen class I bead)
T2 heavy chain: not shown
Briefly: LABScreen beads.

Assay [3] deals with T3, CW6W3.ECO.PP.002/.003 (rhHLA-Cw6/ARF) (human).
T3 construct: also called rhHLA-Cw6/ARFN; rHLA-Cw6/ARFN
Put plainly: SPR ProteOn XPR36, captured mAb; valid kinetic fit, range of two replicates.
Protocol: (§1) Anti-HLA-Cw6 mAbs were captured at ligand densities ranging from 100 to 200 response units. […] All analyses were conducted in PBST at 100 μL/min flow rate with association and dissociation times of 180 and 900 seconds, respectively. […] Analyte raw data was double referenced by subtraction of the blank surface response at “interspots” (to correct for refractive index changes and any non-specific interactions with the chip surface) and of the buffer blank response (to correct for any baseline drift resulting from mAb dissociation over time). Referenced data were globally fit to a 1:1 simple Langmuir binding model. Kinetic parameters were calculated for each mAb/antigen combination or interaction using Bio-Rad ProteOn Manager software (version 3.1.0.6) with parameter (kon, koff, Rmax) scope and type set to “Grouped” and “Fitted,” respectively.

Assay [4] has as its target CW6W35.001. Put plainly: SPR Biacore 8K, captured mAb; Acceptable fit.
Description: (§2) To further characterize the ability of the antibodies to differentiate between class I MHC molecules.
Assay [5] has as its target CW6W53.001. Briefly: SPR Biacore 8K, captured mAb; Acceptable fit.
Description: as §2
Assay [6] has as its target T4, CW6W36 (rhHLA-Cw6/ADAMTSL5) (human).
T4 construct: also called CW6W36.002; rHLA-Cw6/ADAMTSL5
Briefly: SPR Biacore 8K, captured mAb; Acceptable fit.
Description: as §2

Assay [7] concerns the target CW6W51.001. Briefly: SPR Biacore 8K, captured mAb; Acceptable fit.
Description: as §2
The target in assay [8] is CW6W54.001. Briefly: SPR Biacore 8K, captured mAb; Acceptable fit.
Description: as §2
Assay [9] deals with T3, CW6W3.ECO.PP.002/.003 (rhHLA-Cw6/ARF). Briefly: SPR ProteOn XPR36, captured mAb; valid kinetic fit, range of two replicates (upper end).
Protocol: as §1
Assay [10] has as its target CW6W35.001. Put plainly: SPR Biacore 8K, captured mAb; Kinetic fit not valid.
Assay [11] concerns the target CW6W53.001. The assay is described as above.
Assay [12] addresses CW6W51.001. The description is as above.
Assay [13] addresses CW6W54.001. Described as above.
Assay [14] has as its target T4, CW6W36 (rhHLA-Cw6/ADAMTSL5). Put plainly: SPR ProteOn XPR36, captured mAb; valid kinetic fit, range of two replicates (second end).
Protocol: as §1
The target of assay [15] is T1, CW6W32 (rhHLA-Cw6/TRAT). Briefly: SPR ProteOn XPR36, captured mAb; valid kinetic fit.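 Note: Anti-HLA-Cw6 mAbs captured at 100–200 RU, antigen flowed in PBST, 180 s association and 900 s dissociation, double-referenced sensorgrams globally fit to a 1:1 Langmuir model.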
Protocol: as §1
Assay [16] deals with T4, CW6W36 (rhHLA-Cw6/ADAMTSL5). Briefly: SPR ProteOn XPR36, captured mAb; valid kinetic fit, range of two replicates.
Protocol: as §1
For assay [17], the target named is T3, CW6W3.ECO.PP.002/.003 (rhHLA-Cw6/ARF). Put plainly: SPR ProteOn XPR36, captured mAb.
Protocol: as §1
Assay [18] concerns the target T2, A24_A*24:02. Put plainly: LABScreen beads.
Assay [19] has as its target T3, CW6W3.ECO.PP.002/.003 (rhHLA-Cw6/ARF). Put plainly: SPR ProteOn XPR36, captured mAb; valid kinetic fit.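 Note: Anti-HLA-Cw6 mAbs captured at 100–200 RU, antigen flowed in PBST, 180 s association and 900 s dissociation, double-referenced sensorgrams globally fit to a 1:1 Langmuir model.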
Protocol: as §1
Assay [20] has as its target T1, CW6W32 (rhHLA-Cw6/TRAT). Put plainly: SPR ProteOn XPR36, captured mAb.
Protocol: as §1
In assay [21] the target is T4, CW6W36 (rhHLA-Cw6/ADAMTSL5). Put plainly: SPR ProteOn XPR36, captured mAb.
Protocol: as §1
The target in assay [22] is T2, A24_A*24:02. Briefly: LABScreen beads.
Protocol: The LAB Screen (One Lambda) assay investigates antibody binding to a panel of 97 Class I HLA alleles (HLA-A, -B, and -C) using a bead-based fluorescent flow technology (Luminex 100; Luminex; Austin, Tex.). In a 96-well assay plate, 5 μl of the LAB Screen (One Lambda #LS1A04) beads were incubated with 20 μl of each test antibody (10 μg/ml) for 30 minutes in the dark at RT with gentle shaking. After the incubation was complete, 150 μl of the supplied 1X wash buffer was added to each well, and the plate was centrifuged at 1300×g for 5 minutes at RT. The wash solution was removed by flicking, and the plates were washed one more time. A 1× PE-conjugated anti-human IgG (One Lambda #LSAB-2) solution was prepared and 100 μl/well added to the assay plate. The plate was incubated for 30 minutes in the dark at RT with gentle shaking. The beads were then washed twice as described above, and then 80 μl/well of 1× PBS was added to each well. The plate was analyzed on a Luminex 100 instrument, and the data was analyzed using the Fusion 3.0 Software (One Lambda).
Purified antibodies were analyzed for allelic specificity by the LAB SCREEN® assay, which evaluates qualitative antibody binding to 97 Class I HLA alleles (HLA-A, -B and -C) using bead-based fluorescent flow technology (Luminex 100).

B1: CW6B175 (antibody, V domains shown)
VH: EVQLVESGGGLVQPGGSLRLSCAASGFTFTNYWMTWVRQAPGKGLEWVANIKQSGSEKYYVDSVKGRFTISRDNAKNSLYLQMNSLRAEDTAVYYCARTLYEWELEPFDYWGQGTLVTVSS
VL: SYVLTQPPSVSVAPGQTARITCGGNRIGSKSVHWYQQKPGQAPVLVVFDDSDRPSGIPERFSGSNSGITATLTISRVEAGDEADYYCQVWDSSNDHVVFGGGTKLTVL
notes: also called CW6B175.001; CW6M175 (DNA ID)
The term Kd denotes the equilibrium constant for the complex coming apart. As a reminder, the koff is the first-order rate constant of dissociation. As usually defined, the kon is the rate constant with which the complex forms. Turning to B1, the Kd was determined as 0.663 nM with CW6W32 (rhHLA-Cw6/TRAT) [1]; 0.0285 nM in assay [3]; 0.12 nM with CW6W35.001 [4]; 0.327 nM in the assay with CW6W53.001 [5]; 1.87 nM in assay [6]; 0.157 nM in the assay with CW6W51.001 [7]. Also, the Kd was 0.128 nM with CW6W54.001 [8] and 0.0346 nM in [9]. Besides, the koff with CW6W32 (rhHLA-Cw6/TRAT) [1] stood at 0.284 s⁻¹; in assay [3], 0.000314 s⁻¹; in the assay with CW6W35.001 [4], 0.000126 s⁻¹; with CW6W53.001 [5], 0.00056 s⁻¹; in [6], 0.0163 s⁻¹; with CW6W51.001 [7], 0.000285 s⁻¹. The values for the koff (with CW6W54.001 [8]; in assay [9]) were 0.000842 s⁻¹ and 0.000363 s⁻¹, respectively. For the same molecule, the kon with CW6W32 (rhHLA-Cw6/TRAT) [1] was 4.28e+08 M⁻¹ s⁻¹; in assay [3], 1.05e+07 M⁻¹ s⁻¹; with CW6W35.001 [4], 1.05e+06 M⁻¹ s⁻¹; with CW6W53.001 [5], 1.72e+06 M⁻¹ s⁻¹; in assay [6] it was 8.73e+06 M⁻¹ s⁻¹; with CW6W51.001 [7], 1.82e+06 M⁻¹ s⁻¹. The kon with CW6W54.001 [8] amounted to 6.6e+06 M⁻¹ s⁻¹; in assay [9], 1.1e+07 M⁻¹ s⁻¹. For the same molecule, the binding result with A24_A*24:02 [2] is reported as “no binding (tested: 10 µg/ml)”.

B2: CW6B130 (antibody, V domains shown)
VH: QLQLQESGPGLVKPSETLSLTCTVSGASISSINYYWGWIRQPPGKGLEWIGSFYYSGNTYYNPSLKSRVTISVDTSKNYFSLKLNSVTAADTAVYYCAREYYDSSGYYPFEPWGQGTLVTVSS
VL: SYVLTQPPSVSVAPGQTARITCGGDNIGSESVHWYQQKPGQAPVLVVYDDTDRPSGIPERFSGSKSGTTATLTISWVEAGDEADYYCQVWDSSSDHVVFGGGTKLTVL
notes: also called CW6B130.001; CW6M130 (DNA ID)
Regarding B2, the Kd was found to be 6.04 nM with CW6W35.001 [10]; 0.205 nM with CW6W53.001 [11]; 0.622 nM with CW6W32 (rhHLA-Cw6/TRAT) [1]; 0.571 nM with CW6W51.001 [12]; 0.0828 nM in the assay with CW6W54.001 [13]; 0.0713 nM in [14]. Further, the Kd is 0.27 nM in the assay with CW6W32 (rhHLA-Cw6/TRAT) [15], 0.0586 nM in assay [16] and 0.272 nM in assay [6]. Further, the koff with CW6W35.001 [10] came out at 0.0101 s⁻¹; with CW6W53.001 [11], 0.0054 s⁻¹; with CW6W32 (rhHLA-Cw6/TRAT) [1] it was 0.00509 s⁻¹; with CW6W51.001 [12] it was 0.000389 s⁻¹; with CW6W54.001 [13], 0.00204 s⁻¹; in assay [14] it was 0.00097 s⁻¹. For the same molecule, the koff with CW6W32 (rhHLA-Cw6/TRAT) [15] came to 0.00272 s⁻¹; in [16], 0.00124 s⁻¹; in assay [6], 0.00184 s⁻¹. The kon in the assay with CW6W35.001 [10] turned out to be 1.67e+06 M⁻¹ s⁻¹; with CW6W53.001 [11], 2.63e+07 M⁻¹ s⁻¹; in the assay with CW6W32 (rhHLA-Cw6/TRAT) [1], 8.2e+06 M⁻¹ s⁻¹; with CW6W51.001 [12] it was 681000 M⁻¹ s⁻¹; with CW6W54.001 [13], 2.47e+07 M⁻¹ s⁻¹; in assay [14], 1.75e+07 M⁻¹ s⁻¹. In addition, the kon came to 1.03e+07 M⁻¹ s⁻¹ in the assay with CW6W32 (rhHLA-Cw6/TRAT) [15], 1.66e+07 M⁻¹ s⁻¹ in assay [16] and 6.77e+06 M⁻¹ s⁻¹ in [6]. The values for the binding result (in [17]; with A24_A*24:02 [18]) were “binds” and “no binding (tested: 10 µg/ml)”, respectively.

B3: CW6B188 (antibody, V domains shown)
VH: EVQLVESGGGLVQPGGSLRLSCAASGFTFTNYWMTWVRQAPGKGLEWVANIKQSGNEKYYVDSVKGRFTISRDNAKNSLYLQMNSLRAEDTAVYYCARTLYEWELEPFDYWGQGTLVTVSS
VL: SYVLTQPPSVSVAPGQTARITCGGNRIGSKNLHWYQQKPGQAPVLVVYDDSDRPSGIPERFSGSNSGSTATLTISRVEAGDEADYYCQVWDSSRDHVVFGGGTKLTVL
notes: also called CW6B188.001; CW6M188 (DNA ID)
As to B3, in [19], the affinity, expressed as Kd, was 0.12 nM; the koff worked out at 0.000574 s⁻¹; the kon was found to be 5.66e+06 M⁻¹ s⁻¹. Further, in the assay with CW6W32 (rhHLA-Cw6/TRAT) [20], the binding result is recorded as “binds”. Further, the binding result in [21] is reported as “binds”. Further, in the assay with A24_A*24:02 [22], the binding result is reported as “no binding (tested: 10 µg/ml)”.
